From PMC12522135, “Engineering a Coiled-Coil Protein for DARPin Presentation as a Potent SARS-CoV‑2 Therapeutic” (Biomacromolecules, 2025) come the findings set out here.

Broadly, the Kd is a measure of binding affinity in units of concentration. The low end stands for tighter binding, the high end for weaker binding.

Sequences and labels used below:
B1: HEX-D3 (designed binder)
chain: DLGKKLLQAARAGQLDEVRELLKAGADVNAKDQEGITPLHVAAHQGHLEIVEVLLKAGADVNAKDVWGRTPLHLAAWRGHLEIVEVLLKAGADVNAKDHAGATPLHAAALSGHLEIVEVLLKAGADVNAQDKSGKTPADLAARAGHQDIAEVLQKAAGGGSGGGSGGGSGGGSGELKAIAQELKAIAKELKAIAWELKAIAQGAGGGGSGGGSGGGSGGGSDLGKKLLQAARAGQLDEVRELLKAGADVNAKDQEGITPLHVAAHQGHLEIVEVLLKAGADVNAKDVWGRTPLHLAAWRGHLEIVEVLLKAGADVNAKDHAGATPLHAAALSGHLEIVEVLLKAGADVNAQDKSGKTPADLAARAGHQDIAEVLQKAA
B2: Linear D2 (designed binder)
chain: DLGKKLLQAARAGQLDEVRELLKAGADVNAKDREGKTPLHVAAQEGHLEIVEVLLKAGADVNAKDVWGRTPLHLAAWIGHLEIVEVLLKAGADVNAKDVSGATPLHAAALHGHLEIVEVLLNAGADVNAQDKSGKTPADLAARAGHQDIAEVLQKAAGGGSGGGSGGGSGGGSDLGKKLLQAARAGQLDEVRELLKAGADVNAKDREGKTPLHVAAQEGHLEIVEVLLKAGADVNAKDVWGRTPLHLAAWIGHLEIVEVLLKAGADVNAKDVSGATPLHAAALHGHLEIVEVLLNAGADVNAQDKSGKTPADLAARAGHQDIAEVLQKAAGGGSGGGSGGGSGGGSDLGKKLLQAARAGQLDEVRELLKAGADVNAKDREGKTPLHVAAQEGHLEIVEVLLKAGADVNAKDVWGRTPLHLAAWIGHLEIVEVLLKAGADVNAKDVSGATPLHAAALHGHLEIVEVLLNAGADVNAQDKSGKTPADLAARAGHQDIAEVLQKAA
B3: HEX-D1 (designed binder)
chain: DLGKKLLQAARAGQLDEVRELLKAGADVNAKDREGITPLHLAAQHGHLEIVEVLLKAGADVNAKDVWGRTPLHLAAWQGHLEIVEVLLKAGADVNAKDLAGATPLHVAALYGHLEIVEVLLKAGADVNAQDKSGKTPADLAARAGHQDIAEVLQKAAGGGSGGGSGGGSGGGSGELKAIAQELKAIAKELKAIAWELKAIAQGAGGGGSGGGSGGGSGGGSDLGKKLLQAARAGQLDEVRELLKAGADVNAKDREGITPLHLAAQHGHLEIVEVLLKAGADVNAKDVWGRTPLHLAAWQGHLEIVEVLLKAGADVNAKDLAGATPLHVAALYGHLEIVEVLLKAGADVNAQDKSGKTPADLAARAGHQDIAEVLQKAA
B4: Linear D3 (designed binder)
chain: DLGKKLLQAARAGQLDEVRELLKAGADVNAKDQEGITPLHVAAHQGHLEIVEVLLKAGADVNAKDVWGRTPLHLAAWRGHLEIVEVLLKAGADVNAKDHAGATPLHAAALSGHLEIVEVLLKAGADVNAQDKSGKTPADLAARAGHQDIAEVLQKAAGGGSGGGSGGGSGGGSDLGKKLLQAARAGQLDEVRELLKAGADVNAKDQEGITPLHVAAHQGHLEIVEVLLKAGADVNAKDVWGRTPLHLAAWRGHLEIVEVLLKAGADVNAKDHAGATPLHAAALSGHLEIVEVLLKAGADVNAQDKSGKTPADLAARAGHQDIAEVLQKAAGGGSGGGSGGGSGGGSDLGKKLLQAARAGQLDEVRELLKAGADVNAKDQEGITPLHVAAHQGHLEIVEVLLKAGADVNAKDVWGRTPLHLAAWRGHLEIVEVLLKAGADVNAKDHAGATPLHAAALSGHLEIVEVLLKAGADVNAQDKSGKTPADLAARAGHQDIAEVLQKAA
B5: Linear D1 (designed binder)
chain: DLGKKLLQAARAGQLDEVRELLKAGADVNAKDREGITPLHLAAQHGHLEIVEVLLKAGADVNAKDVWGRTPLHLAAWQGHLEIVEVLLKAGADVNAKDLAGATPLHVAALYGHLEIVEVLLKAGADVNAQDKSGKTPADLAARAGHQDIAEVLQKAAGGGSGGGSGGGSGGGSDLGKKLLQAARAGQLDEVRELLKAGADVNAKDREGITPLHLAAQHGHLEIVEVLLKAGADVNAKDVWGRTPLHLAAWQGHLEIVEVLLKAGADVNAKDLAGATPLHVAALYGHLEIVEVLLKAGADVNAQDKSGKTPADLAARAGHQDIAEVLQKAAGGGSGGGSGGGSGGGSDLGKKLLQAARAGQLDEVRELLKAGADVNAKDREGITPLHLAAQHGHLEIVEVLLKAGADVNAKDVWGRTPLHLAAWQGHLEIVEVLLKAGADVNAKDLAGATPLHVAALYGHLEIVEVLLKAGADVNAQDKSGKTPADLAARAGHQDIAEVLQKAA
B6: HEX-D2 (designed binder)
chain: DLGKKLLQAARAGQLDEVRELLKAGADVNAKDREGKTPLHVAAQEGHLEIVEVLLKAGADVNAKDVWGRTPLHLAAWIGHLEIVEVLLKAGADVNAKDVSGATPLHAAALHGHLEIVEVLLNAGADVNAQDKSGKTPADLAARAGHQDIAEVLQKAAGGGSGGGSGGGSGGGSGELKAIAQELKAIAKELKAIAWELKAIAQGAGGGGSGGGSGGGSGGGSDLGKKLLQAARAGQLDEVRELLKAGADVNAKDREGKTPLHVAAQEGHLEIVEVLLKAGADVNAKDVWGRTPLHLAAWIGHLEIVEVLLKAGADVNAKDVSGATPLHAAALHGHLEIVEVLLNAGADVNAQDKSGKTPADLAARAGHQDIAEVLQKAA

This assay concerns the target SARS-CoV-2 RBD protein (SARS-CoV-2 (Wuhan-Hu-1), UniProt P0DTC2 319-541). Description: BLI. The note with it: both partners purified.
The molecule B1 returned a Kd of less than 1 pM. In turn, B2 registered a Kd of less than 1 pM. The figure for B3 is less than 1 pM; for B4 it is less than 1 pM; for B5 it is less than 1 pM. The figure for B6 is less than 1 pM.
